From paper doi:10.1101/2025.03.03.641048 (2025)

B1: mouse ZP2 N-terminal ZP-N1 domain (mZP2-N1), His-tagged (domain or fragment)
chain: VSLPQSENPAFPGTLICDKDEVRIEFSSRFDMEKWNPSVVDTLGSEILNCTYALDLERFVLKFPYETCTIKVVGGYQVNIRVGDTTTDVRYKDDMYHFFCPAIQ
B2: rZP2-N1 S113R (domain or fragment)
chain: SLPQSENPAFPGTLICDKDEVRVEFSSRFDMEKWNPSLVDTFGNEISSCTYALDLEKFILKFPYETCTIKVIGGYQVNIRVQDTNADVRYKDDVHHFFCPAIQ

Target: IE-3 fragment antigen-binding (Fab) region, recombinant, labelled (labeled with the Blue-NHS labeling kit (chain not told) | labeled with the Blue-NHS labeling kit (chain not told))
Experiment: MST

Going from B1 to TIKVVGGYQVNIRVGDTTTDVRYKDDMYHFFCPAIQ (domain or fragment) [mZP2 T103-Q138 linear epitope fused to maltose-binding protein], the Kd rises from 0.3 nM to 8.9 nM (30-fold). The first binds more tightly here.

B2 showed a Kd of 16.3 nM.
